Molecular target: CTD (nucleocapsid C-terminal RNA binding domain) (SARS-CoV-2, UniProt P0DTC9 247-364)
Test: ITC

## GGUUCACCGAGGCCACGCGGAGUACGAUCGAGUGUACAGUGAACC (structured_RNA) [s2m-CoV-2]
  Kd: 600 ± 200 nM

Reference: PMC10201421
